# The supplement of paper PMC10567573
# B1: KRT18 (parent)
# chain: PQVRDWSHYFKIIEDLRAQIFANT
# B2: STEAP1 (parent)
# chain: LWKMKPRRNLEEDDYLHKDTGETS
# Variants of: B1
# Experiment: protein stability index of a GFP-peptide fusion (GPS, HEK-293T) (PSI 1-6); higher = more stable
# Settings: c terminus: a fixed tail appended
# 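Also: lentivirally expressed fusions sorted by FACS into six bins by GFP to DsRed ratio, PSI derived from sequencing read proportions per bin multiplied by bin number.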
row,Variant,protein stability index
1,PQVRDWSHYFKIIEDLRAQIFAAT,1.86
2,PQVRDWSHYFKIIEDLRAQIFAPT,1.91
3,PQVRDWSHYFKIIEDLRAQIFART,2.57
4,PQVRDWSHYFKIIEDLRAQIFAVT,2.08
5,PQVRDWSHYFKIIEDLRAQIFAHT,2.35
6,PQVRDWSHYFKIIEDLRAQIFAET,2.8
7,PQVRDWSHYFKIIEDLRAQIFAQT,1.86
8,PQVRDWSHYFKIIEDLRAQIFACT,2.36
9,PQVRDWSHYFKIIEDLRAQIFAKT,2.06
10,PQVRDWSHYFKIIEDLRAQIFAYT,1.56
11,PQVRDWSHYFKIIEDLRAQIFATT,1.56
12,PQVRDWSHYFKIIEDLRAQIFALT,2.53
13,PQVRDWSHYFKIIEDLRAQIFAST,2.33
14,PQVRDWSHYFKIIEDLRAQIFAWT,1.95
15,PQVRDWSHYFKIIEDLRAQIFAMT,2.1
16,PQVRDWSHYFKIIEDLRAQIFADT,2.43
17,PQVRDWSHYFKIIEDLRAQIFAFT,1.22
18,PQVRDWSHYFKIIEDLRAQIFAIT,1.93
19,PQVRDWSHYFKIIEDLRAQIFSNT,2.17
20,PQVRDWSHYFKIIEDLRAQIFQNT,2.72
21,PQVRDWSHYFKIIEDLRAQIFWNT,1.41
22,PQVRDWSHYFKIIEDLRAQIFTNT,2.14

row,Variant,protein stability index
1,PQVRDWSHYFKIIEDLRAQIFYNT,1.64
2,PQVRDWSHYFKIIEDLRAQIFVNT,2.01
3,PQVRDWSHYFKIIEDLRAQIFRNT,1.99
4,PQVRDWSHYFKIIEDLRAQIFANK,2.53
5,PQVRDWSHYFKIIEDLRAQIFANC,2.02
6,PQVRDWSHYFKIIEDLRAQIFANP,2.84
7,PQVRDWSHYFKIIEDLRAQIFANW,2.27
8,PQVRDWSHYFKIIEDLRAQIFANE,3.47
9,PQVRDWSHYFKIIEDLRAQIFANY,1.72
10,PQVRDWSHYFKIIEDLRAQIFANL,2.31
11,PQVRDWSHYFKIIEDLRAQIFANR,2.23
12,PQVRDWSHYFKIIEDLRAQIFANG,2.5
13,PQVRDWSHYFKIIEDLRAQIFANV,2.04
14,PQVRDWSHYFKIIEDLRAQIFANI,2.6
15,PQVRDWSHYFKIIEDLRAQIFANF,2.34
16,PQVRDWSHYFKIIEDLRAQIFANN,2.74
17,PQVRDWSHYFKIIEDLRAQIFANM,2.81
18,PQVRDWSHYFKIIEDLRAQIFANA,1.9
19,PQVRDWSHYFKIIEDLRAQIFANH,2.43
20,PQVRDWSHYFKIIEDLRAQIFANS,2.31
21,PQVRDWSHYFKIIEDLRAQIFAND,2.75
22,PQVRDWSHYFKIIEDLRAQIFANQ,2.47

# Variants of: B2
# Experiment: as above
# Settings: c terminus: a fixed tail appended
row,Variant,protein stability index
1,LWFMKPRRNLEEDDYLHKDTGETS,3.31
2,LWPMKPRRNLEEDDYLHKDTGETS,4.72
3,LWSMKPRRNLEEDDYLHKDTGETS,4.51
4,LWTMKPRRNLEEDDYLHKDTGETS,4.36
5,LWHMKPRRNLEEDDYLHKDTGETS,4.54
6,LWKMKPRRDLEEDDYLHKDTGETS,4.53
7,LWKMKPRRWLEEDDYLHKDTGETS,3.08
8,LWKMKPRRELEEDDYLHKDTGETS,4.49
9,LWKMKPRRRLEEDDYLHKDTGETS,4.23
10,LWKMKPRRPLEEDDYLHKDTGETS,4.11
11,LWKMKPRRYLEEDDYLHKDTGETS,4.07
12,LWKMKPRPNLEEDDYLHKDTGETS,4.61
13,LWKMKPRHNLEEDDYLHKDTGETS,4.1
14,LWKMKPRENLEEDDYLHKDTGETS,4.83
15,LWKMKPRYNLEEDDYLHKDTGETS,4.04
16,LWKMKPRWNLEEDDYLHKDTGETS,3.82
17,LWKMKPRVNLEEDDYLHKDTGETS,4.08
18,LWKMQPRRNLEEDDYLHKDTGETS,4.86
19,LWKMEPRRNLEEDDYLHKDTGETS,4.74
20,LWKMAPRRNLEEDDYLHKDTGETS,3.93
21,LWKMMPRRNLEEDDYLHKDTGETS,4
22,LWKMHPRRNLEEDDYLHKDTGETS,4.4
23,LWKMWPRRNLEEDDYLHKDTGETS,2.86
24,LWKMTPRRNLEEDDYLHKDTGETS,4.56

row,Variant,protein stability index
1,LWKMIPRRNLEEDDYLHKDTGETS,3.36
2,LWKMRPRRNLEEDDYLHKDTGETS,4.11
3,LWKMKPRRNLEEDDYLHKDTGERS,4.48
4,LWKMKPRRNLEEDDYLHKDTGEWS,3.54
5,LWKMKPRRNLEEDDYLHKDTGEGS,4.26
6,LWKMKPRRNLEEDDYLHKDTGEQS,4.52
7,LWKMKPRRNLEEDDYLHKDTGEDS,4.59
8,LWKMKPRRNLEEDDYLHKDTGENS,4.37
9,LWKMKPRRNLEEDDYLHKDTGEVS,4.12
10,LWKMKPRRNLEEDDYLHKDTGEYS,4.02
11,LWKMKPRRNLEEDDYLHKDTGEIS,3.53
12,LWKMKPRRNLEEDDYLHKDTGEKS,4.73
13,LWKMKPRRNLEEDDYLHKDTGEES,5.03
14,LWKMKPRRNLEEDDYLKKDTGETS,4.38
15,LWKMKPRRNLEEDDYLMKDTGETS,4.29
16,LWKMKPRRNLEEDDYLGKDTGETS,4.5
17,LWKMKPRRNLEEDDYLLKDTGETS,4.09
18,LWKMKPRRNLEEDDYLPKDTGETS,4.8
19,LWKMKPRRNLEEDDYLYKDTGETS,4.38
20,LWKMKPRRNLEEDDYLEKDTGETS,4.35
21,LWKMKPRRNLEEDDYLRKDTGETS,4.41
22,LWKMKPRRNLEEDDQLHKDTGETS,4.92
23,LWKMKPRRNLEEDDVLHKDTGETS,5.07
24,LWKMKPRRNLEEDDKLHKDTGETS,4.84

row,Variant,protein stability index
1,LWKMKPRRNLEEDDTLHKDTGETS,5.04
2,LWKMKPRRNLEEDDNLHKDTGETS,4.57
3,LWKMKPQRNLEEDDYLHKDTGETS,4.62
4,LWKMKPWRNLEEDDYLHKDTGETS,4.07
5,LWKMKPTRNLEEDDYLHKDTGETS,4.85
6,LWKMKPSRNLEEDDYLHKDTGETS,4.58
7,LWKMKPNRNLEEDDYLHKDTGETS,4.71
8,LWKMKPYRNLEEDDYLHKDTGETS,3.94
9,LWKMKPERNLEEDDYLHKDTGETS,4.47
10,LWKMKPVRNLEEDDYLHKDTGETS,4.14
11,LWKMKIRRNLEEDDYLHKDTGETS,3.94
12,LWKMKMRRNLEEDDYLHKDTGETS,3.77
13,LWKMKGRRNLEEDDYLHKDTGETS,4.42
14,LWKMKRRRNLEEDDYLHKDTGETS,3.65
15,LWKMKTRRNLEEDDYLHKDTGETS,4.47
16,LWKMKLRRNLEEDDYLHKDTGETS,3.86
17,LCKMKPRRNLEEDDYLHKDTGETS,5.08
18,LFKMKPRRNLEEDDYLHKDTGETS,4.55
19,LSKMKPRRNLEEDDYLHKDTGETS,5.48
20,LLKMKPRRNLEEDDYLHKDTGETS,5
21,LGKMKPRRNLEEDDYLHKDTGETS,4.96
22,LNKMKPRRNLEEDDYLHKDTGETS,4.82
23,LWKMKPRRNLEKDDYLHKDTGETS,4.25
24,LWKMKPRRNLEMDDYLHKDTGETS,3.63

row,Variant,protein stability index
1,LWKMKPRRNLENDDYLHKDTGETS,4.15
2,LWKMKPRRNLELDDYLHKDTGETS,3.74
3,LWKMKPRRNLEQDDYLHKDTGETS,4.23
4,LWKMKPRRNLETDDYLHKDTGETS,4.28
5,LWKSKPRRNLEEDDYLHKDTGETS,4.69
6,LWKFKPRRNLEEDDYLHKDTGETS,3.99
7,LWKYKPRRNLEEDDYLHKDTGETS,4.41
8,LWKCKPRRNLEEDDYLHKDTGETS,4.27
9,LWKIKPRRNLEEDDYLHKDTGETS,4.36
10,LWKMKPRRNLEEDDYLHKDTGFTS,3.83
11,LWKMKPRRNLEEDDYLHKDTGQTS,4.11
12,LWKMKPRRNLEEDDYLHKDTGHTS,3.89
13,LWKMKPRRNLEEDDYLHKDTGMTS,3.85
14,LWKMKPRRNLEEDDYLHKDTGGTS,4.37
15,LWKMKPRRNLEEDDYLHKDTGYTS,3.46
16,LWKMKPRRNLEEDDYLHKDTGDTS,4.47
17,LWKMKPRRNLEEDDYLHKDTGNTS,4.22
18,LWKMKPRRNLEEDDYLHKDTGETN,4.72
19,LWKMKPRRNLEEDDYLHKDTGETQ,3.85
20,LWKMKPRRNLEEDDYLHKDTGETH,4.31
21,LWKMKPRRNLEEDDYLHKDTGETA,4.61
22,LWKMKPRRNLEEDDYLHKDTGETC,3.89
23,LWKMKPRRNLEEDDYLHKDTGETK,4.47
24,LWKMKPRRNLEEDMYLHKDTGETS,4

row,Variant,protein stability index
1,LWKMKPRRNLEEDKYLHKDTGETS,4.53
2,LWKMKPRRNLEEDAYLHKDTGETS,4.21
3,LWKMKPRRNLEEDNYLHKDTGETS,4.4
4,LWKMKPRRNLEEDEYLHKDTGETS,4.63
5,LWKMKPRRNLEEDYYLHKDTGETS,3.87
6,LWKMKPRRNLEEDDYGHKDTGETS,5.08
7,LWKMKPRRNLEEDDYRHKDTGETS,4.1
8,LWKMKPRRNLEEDDYPHKDTGETS,4.2
9,LWKMKPRRNLEEDDYSHKDTGETS,4.6
10,LWKMKPRRNLEEDDYMHKDTGETS,4.24
11,LWKMKPRRNLEEDDYHHKDTGETS,4.36
12,LWKMKPRRNLEEDDYLHDDTGETS,4.7
13,LWKMKPRRNLEEDDYLHADTGETS,5.12
14,LWKMKPRRNLEEDDYLHLDTGETS,3.93
15,LWKMKPRRNLEEDDYLHFDTGETS,3.38
16,LWKMKPRRNLEEDDYLHGDTGETS,4.73
17,LWKMKPRRNLEEDDYLHNDTGETS,4.51
18,LWKMKPRRNLEEDDYLHSDTGETS,4.53
19,LWKMKPRRNLEEDDYLHKRTGETS,4.09
20,LWKMKPRRNLEEDDYLHKWTGETS,2.87
21,LWKMKPRRNLEEDDYLHKHTGETS,3.83
22,LWKMKPRRNLEEDDYLHKVTGETS,3.43
23,LWKMKPRRNLEEDDYLHKSTGETS,3.48
24,LWKMKPRRNLEEDDYLHKDTKETS,4.26

row,Variant,protein stability index
1,LWKMKPRRNLEEDDYLHKDTHETS,4.42
2,LWKMKPRRNLEEDDYLHKDTFETS,3.92
3,LWKMKPRRNLEEDDYLHKDTLETS,3.91
4,LWKMKPRRNLEEDDYLHKDTDETS,4.25
5,LWKMKPRRNLEEDDYLHKDTVETS,3.64
6,LWKMKPRRNLEEDDYLHKDTIETS,3.31
7,LWKMKPRRNLEEDDYLHKDTAETS,4.65
8,LWKMKPRRNGEEDDYLHKDTGETS,4.02
9,LWKMKPRRNEEEDDYLHKDTGETS,4.89
10,LWKMKPRRNREEDDYLHKDTGETS,4.24
11,LWKMKPRRNTEEDDYLHKDTGETS,4.69
12,LWKMKPRRNLVEDDYLHKDTGETS,4.28
13,LWKMKPRRNLWEDDYLHKDTGETS,3.22
14,LWKMKPRRNLEEFDYLHKDTGETS,3.83
15,LWKMKPRRNLEEEDYLHKDTGETS,4.84
16,LWKMKPRRNLEERDYLHKDTGETS,4.15
17,LWKMKPRRNLEEDDYLHKDEGETS,4.8
18,LWKMKPRRNLEEDDYLHKDSGETS,4.19
19,LWKMKPRRNLEEDDYLHKDFGETS,3.51
20,LWKMKPRRNLEEDDYLHKDMGETS,3.84
21,MWKMKPRRNLEEDDYLHKDTGETS,4.59
22,EWKMKPRRNLEEDDYLHKDTGETS,5.32
23,HWKMKPRRNLEEDDYLHKDTGETS,4.92
24,RWKMKPRRNLEEDDYLHKDTGETS,4.8
